Experimental findings from paper PMC10850481, “Structural basis for the oligomerization-facilitated NLRP3 activation” (Nature Communications, 2024) are described below.

As usually defined, the stoichiometry N is a count of units in the complex or per binding partner.

B1: human NEK7 with kinase mutations K63M/K64M (NEK7_(K63M/K64M)) (enzyme)
chain: not shown
notes: human NEK7 (UniProt Q8TDX7) with kinase mutations K63M/K64M; also called NIMA-related kinase 7; 6His.SUMO.NEK7_(K63M/K64M); source: E. coli BL21(DE3), purified (HisPur Ni resin, Ulp1 cleavage, HisTrap flow-through, Superdex 200); not shown: His6, N-terminal, cleaved; SUMO, N-terminal, cleaved
B2: PYD-deleted human NLRP3 (NLRP3_(ΔPYD)), from the construct FLAG.6His.MBP.TEV.CfaC.NLRP3_130.K131F.M132N-1036 (domain or fragment, UniProt Q96P20 130-1036, looked up)
chain: CFNKKDYRKKYRKYVRSRFQCIEDRNARLGESVSLNKRYTRLRLIKEHRSQQEREQELLAIGKTKTCESPVSPIKMELLFDPDDEHSEPVHTVVFQGAAGIGKTILARKMMLDWASGTLYQDRFDYLFYIHCREVSLVTQRSLGDLIMSCCPDPNPPIHKIVRKPSRILFLMDGFDELQGAFDEHIGPLCTDWQKAERGDILLSSLIRKKLLPEASLLITTRPVALEKLQHLLDHPRHVEILGFSEAKRKEYFFKYFSDEAQARAAFSLIQENEVLFTMCFIPLVCWIVCTGLKQQMESGKSLAQTSKTTTAVYVFFLSSLLQPRGGSQEHGLCAHLWGLCSLAADGIWNQKILFEESDLRNHGLQKADVSAFLRMNLFQKEVDCEKFYSFIHMTFQEFFAAMYYLLEEEKEGRTNVPGSRLKLPSRDVTVLLENYGKFEKGYLIFVVRFLFGLVNQERTSYLEKKLSCKISQQIRLELLKWIEVKAKAKKLQIQPSQLELFYCLYEMQEEDFVQRAMDYFPKIEINLSTRMDHMVSSFCIENCHRVESLSLGFLHNMPKEEEEEEKEGRHLDMVQCVLPSSSHAACSHGLVNSHLTSSFCRGLFSVLSTSQSLTELDLSDNSLGDPGMRVLCETLQHPGCNIRRLWLGRCGLSHECCFDISLVLSSNQKLVELDLSDNALGDFGIRLLCVGLKHLLCNLKKLWLVSCCLTSACCQDLASVLSTSHSLTRLYVGENALGDSGVAILCEKAKNPQCNLQKLGLVNSGLTSVCCSALSSVLSTNQNLTHLYLRGNTLGDKGIKLLCEGLLHPDCKLQVLELDNCNLTSHCCWDLSTLLTSSQSLRKLSLGNNDLGDLGVMMFCEVLKQQSCLLQNLGLSEMYFNYETKSALETLQEEKPELTVVFEPSW
notes: human NLRP3 (UniProt Q96P20), residues 130-1036 (NACHT and LRR, PYD deleted) with K131F and M132N next to the CfaC intein fragment; The same protomer forms an octamer (with ATP, no MCC950), a hexamer (with ATP and MCC950) and a back-to-back dimer (with NEK7, ATP and MCC950); The second construct, MBP.TEV.NLRP3_130_1036, was used only for the ATPase and nanoDSF assays; also called …

In series [1] the target is B2. Description: cryo-EM structure; NLRP3_(ΔPYD) with ATP, MCC950 (10 fold molar excess) and NEK7_(K63M/K64M) (2 fold molar excess); Superdex 200 peak fractions; C2 symmetry imposed; closed NEK7/NLRP3 dimer. The following applies: both partners purified.
Series [2] deals with the molecule itself. Description: cryo-EM structure; NLRP3_(ΔPYD) with ATP and MCC950; D3 symmetry imposed; closed hexamer, seen in the dataset without NEK7 and as one of two populations in the dataset with NEK7.
Series [3] concerns the molecule itself. Description: cryo-EM structure; NLRP3_(ΔPYD) with ATP, MCC950 (10 fold molar excess) and NEK7_(K63M/K64M) (2 fold molar excess); Superdex 200 peak fractions; C2 symmetry imposed; closed NEK7/NLRP3 dimer.
Series [4] concerns the molecule itself. Description: cryo-EM structure; NLRP3_(ΔPYD) with ATP, without MCC950; applied to grids immediately after SEC (Superose 6, 25 mM HEPES pH 7.4, 0.4 M NaCl, 0.2% CHAPS, 0.2 mM TCEP); D2 symmetry imposed; open octamer.

As for B1, in series [1], the binding result is “binds”.
Turning to B2, the “stoichiometry N” value in series [2] was determined as 6; in series [3], 2; in series [4] it was 8.
